Experimental findings from PMC3814370, “Functional assignment of KEOPS/EKC complex subunits in the biosynthesis of the universal t^6A tRNA modification” (Nucleic Acids Research, 2013) are described below.

The chains are these.
B1: Bud32–Cgi121 binary complex from Pyrococcus abyssi (complex)
chain 1: MKLIKQGAEAKIYLAEFSELYFDYPIKVIVKERIKKRYRIPEIDLKLRKERTIREARILRRAKEFGVNVPYVFEVDTKNMIIVMEYIEGERLKELLEKLPMEERLKVCREVGRQIGKLHEAGIVHGDLTTSNMILREGKVYFIDFGLAEFDDTIEAQGVDLHLLKRAMESTHYKWFERGFEEVLKGYIEIRGEDKGREIREKIREIELRGRYRERSWITQ
chain 2: MTPKFKNFKHDNSGQVETYLFEVISKYTMLEIKTKFGKLCIAKVKLASESIERALNLCNDNCQIVSAKCHEEVIFATILAIKAFSSGRNTAKTIKGEILLRLAGVKQIKDAIKIIGARKGENLIIYFGVSDPCSSLKDFISSLGLREEPLKPCDEDEVKRGFERAAIIEAL
B2: Pcc1–Kae1 binary complex from Pyrococcus abyssi (complex)
chain 1: MKPKRVQGKIVIEFPSEDIAEVVYTSVLYEHVSVPYRRSRVNFRREGRRIVLEIEANDSSAMRGTVNSYLRWIKVALDVLNI
chain 2: MLALGIEGTAHTLGIGIVSEDKVLANVFDTLTTEKGGIHPKEAAEHHARLMKPLLRKALSEAGVSLDDIDVIAFSQGPGLGPALRVVATAARALAVKYRKPIVGVNHCIAHVEITKMFGVKDPVGLYVSGGNTQVLALEGGRYRVFGETLDIGIGNAIDVFARELGLGFPGGPKVEKLAEKGEKYIELPYAVKGMDLSFSGLLTEAIRKYRSGKYRVEDLAYSFQETAFAALVEVTERAVAHTEKDEVVLVGGVAANNRLREMLRIMTEDRGIKFFVPPYDLCRDNGAMIAYTGLRMYKAGISFRLEETIVKQKFRTDEVEIVW
notes: Pcc1, Pyrococcus abyssi; Kae1, Pyrococcus abyssi; Written as the unit of one Pcc1 and one Kae1 (predicted 45 kDa); Its dimerisation is a row of the complex with itself; also called PK; Kae1–Pcc1; source: E. coli Rosetta2 (DE3) pLysS, co-expressed, purified (heat 65°C, Ni-NTA, Superdex 200)

Data set [1] has as its target B2. In words: cell-based or functional assay.
Data set [2] deals with the molecule itself. The data set can be described thus: SEC; gel filtration of purified proteins and complexes on Superdex 200 in storage buffer (LBs); apparent molecular mass (Supplementary Figure S2).

Turning to B1, the “t^6A synthesis (14C-L-threonine incorporated into tRNA) by an equimolar mix of the two binary complexes, relative to PaKEOPS” value in data set [1] is ~80%. In general, stoichiometry N refers to a count of units in the complex or per binding partner. Consider B2, for which the “stoichiometry N” value in data set [2] is 2.
